This is an account of results in PMC5658604.

pKd: −log10 of the molar value.

In data set [1] the test system is TtSmtB (Thermus thermophilus HB27). In words: EMSA. The following applies: cooperative, EMSA as in Fiorentino et al., 2007 (buffer not given here), 0-15 uM protein, 1 nM probe in the competition assay, footprinting in binding buffer, DNase I 1 min …. A general note: Mobility shift assays separate free from complexed probe on a gel.
The target of data set [2] is T1, TtSmtB (Thermus thermophilus HB27) (UniProt Q72KG0).
T1 sequence: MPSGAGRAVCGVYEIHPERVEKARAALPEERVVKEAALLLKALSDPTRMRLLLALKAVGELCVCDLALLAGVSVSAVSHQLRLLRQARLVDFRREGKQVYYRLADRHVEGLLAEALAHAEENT
Kind of data set: EMSA. The following applies: EMSA as in Fiorentino et al., 2007 (buffer not given here), 0-15 uM protein, 1 nM probe in the competition assay; footprinting in binding buffer, DNase I 1 min ….

Data set [3] has as its target T1, TtSmtB (Thermus thermophilus HB27). In words: competition. The following applies: EMSA as in Fiorentino et al., 2007 (buffer not given here), 0-15 uM protein, 1 nM probe in the competition assay; footprinting in binding buffer, DNase I 1 min ….
Data set [4] has the same target. Kind of data set: DNase I footprinting. The following applies: EMSA as in Fiorentino et al., 2007 (buffer not given here), 0-15 uM protein, 1 nM probe in the competition assay, DNase I 1 min ….

Consider 0354p (TTC0354 promoter), for which the pKd in data set [1] (apparent, Hill fit) is 5.85. In the case of “AGAGGACGAGGACCCGCATCCTCCAAAGCCTAGCCCCCCTTCGGTCAGGGGGAGATCATGCGCTCAAGCTGGGCCACC (double strand) [TtarsCp (TtarsC promoter)]”, the binding entry in data set [2] is given as “binds”. As to “CGCCTCGCCGACCGGCACGTGGAGGGCCTGTTGGCGGAGGCCCTGGCCCACGCGGAAGAAAACACTTGACCAGTTGCTCAAATGATGCTACCCTGGGGGCATGAAGGCTCCCAGAGTGCGCGTCTTCCGGGTAGAGGGCATGG (double strand) [0354p (TTC0354 promoter)]”, the pKd in data set [2] is 5.85. The binding entry in data set [3] and in data set [4] was “binds” each time.

“CTCCTTGACCACCCTCTCCTCGGGCAGGGCGGCCCGGGCCTTCTCCACCCTTTCCGGGTGGATCTCGTAGACCCCGCAGACCGCCCTACCAGCCCCGCTTGGCAAGCCTTTCCTCCTCCTTGAGCTGGTCCAGGTTGATGCCCACCATG (double strand) [TtsmtBp (TtsmtB promoter)]”: the pKd in data set [2] was 5.30. With TtsmtBp (TtsmtB promoter), the pKd in data set [1] (multiple complexes) was 5.30.

As usually defined, the pKd is −log10 of the Kd, conventionally taken in molar units.
